Source: patent US20200109211A1 (ELSALYS BIOTECH, published 2020)

T1: recombinant human CD160 protein, soluble form, with a C-terminal tag of 6 histidine residues (R&D SYSTEMS) (human, UniProt O95971 27-159, limits assumed, biotinylated with EZ-Link sulfo-NHS-LC-biotin for BLI and ELISA; not biotinylated when immobilised on the CM5 chip for SPR)
T1 construct: domain: soluble form; Bought protein; also called hCD160-his; biotinylated CD160
T1 sequence: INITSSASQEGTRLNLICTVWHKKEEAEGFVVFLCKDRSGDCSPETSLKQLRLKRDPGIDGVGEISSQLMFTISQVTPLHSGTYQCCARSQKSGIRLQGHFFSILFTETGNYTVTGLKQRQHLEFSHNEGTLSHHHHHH

T2: human CD160 (CD160 GPI isoform) on cells (human, UniProt O95971 25-159, GPI anchor)
T2 construct: whole, on cells; Used for all cells said to carry human CD160: transfected CHO-S and E300 cells and cells that carry it naturally (YT2C2, blood NK, CD8+ T, T CD4, CLL cells); also called hCD160; CHO-S-hCD160 (clone 2G10)
T2 sequence (looked up): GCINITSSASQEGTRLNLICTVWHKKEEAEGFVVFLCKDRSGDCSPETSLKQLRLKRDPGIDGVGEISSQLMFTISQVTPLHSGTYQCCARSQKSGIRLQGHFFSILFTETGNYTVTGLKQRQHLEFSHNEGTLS


Experiments:
[1] = target: T1, recombinant human CD160 protein, …; test: BLI
[2] = target: T1, recombinant human CD160 protein, …; test: BLI (repeats Table 9)
[3] = target: T1, recombinant human CD160 protein, …; test: BLI, biotinylated CD160 at 10 nM on streptavidin sensor, antibody 3.13-100 nM
[4] = target: T1, recombinant human CD160 protein, …; test: SPR (Biacore), design close to Example 2
[5] = target: T2, human CD160 (CD160 GPI isoform) on cells; test: flow cytometry on CHO-hCD160 transfectants
Method: The binding capacity of the anti-CD160 H7 antibodies and of the variants (D12 and A09) thereof in the IgG4 and IgG1 format and in the IgG1 E345K format was evaluated during the labelling of surface CD160 expressed in a recombinant line CHO-S-hCD160 (clone 2G10) in comparison with non-transfected CHO-S cells, by measuring the median fluorescence index (MFI) (see FIG. 1). For this, 5×10⁺⁵ 2G10 (CHO-S-CD160) and non-transfected CHO-S cells were labelled with 2 μg of each of these antibodies and also with the appropriate control isotypes. In FIG. 1, all the anti-CD160 tested (regardless of the isotype or the IgG format or the variant) specifically recognize human CD160 expressed recombinantly by the CHO-S cells.
In FIG. 1B, the IgG4 variants bind more efficiently to the CHO-hCD160 transfectants than H7 (which results in a median fluorescence increased by a factor of 2 compared with H7 IgG4 ELB01101 or with H7 IgG4 H310A-H435Q ELB01102), this being even in the presence of the H310A-H435Q mutations.

[6] = target: T2, human CD160 (CD160 GPI isoform) on cells; test: cell-based or functional assay
[7] = target: T2, human CD160 (CD160 GPI isoform) on cells; test: flow cytometry, percentage of labelled YT2C2 NK cells (2x10^5 cells), antibody 0.39 to 50 nM [panel C]
Method: The binding capacity of the anti-CD160 H7 antibody and of the H7 D12 variant in the IgG4, Fab and Fab-linker Fab format was evaluated during the labelling of surface CD160 expressed naturally on a clone of NK cell line (YT2C2), by measuring the percentage of cell labelled=percentage of binding (see FIG. 1C). For this, 2×10⁺⁵ YT2C2 cells were labelled with increasing concentration of antibodies (from 50 nM to 0.39 nM) and also with the appropriate control isotype. […] In FIG. 1C, IgG4 variants ELB01103 and ELB01104 bind more efficiently to the YT2C2 cells than the H7 IgG4 ELB01101 (which results in a EC₅₀ increased by a factor of 10 compared with H7 IgG4). This is also true for the Fab-linker-Fab format ELB01132. By contrast Fab format ELB01122 bind less efficiently to the YT2C2 cells than the H7 IgG4 ELB01101 (which results in a EC₅₀ decreased by a factor of 2 compared with H7 IgG4). This is certainly due to the monovalency of the Fab format.

[8] = target: T1, recombinant human CD160 protein, …; test: BLI, biotinylated CD160 at 10 nM on streptavidin sensor, antibody 3.13-100 nM; remark: listed apart in the source
Method: (§1) All the experiments were carried out at 30° C. in the running buffer recommended by Fortebio (PBS with 0.1% (p/v) of bovine serum albumin (BSA) and 0.02% (v/v) Tween-20). This buffer was also used for diluting the various ligands and analytes. The samples deposited in a 96-well microplate (cat #738-0026, Dutscher) were shaken at 1000 revolutions per minute.
(§2) The dissociation constants and the association (kₒₙ) and dissociation (kdis) rate constants for each antibody were calculated by applying a 1:1 interaction model, with overall mathematical modelling of curves (fit) (Rmax bound by the sensor) on the ForteBio 9.0 data analysis software.

[9] = target: T1, recombinant human CD160 protein, …; test: BLI (Octet K2), biotinylated hCD160-His on streptavidin sensor, antibody as analyte
Method: as §1
Between the measurements, the surfaces of the biosensor were regenerated by exposing them to 3 cycles of 5 sec in 10 mM glycine, pH 2, followed by 5 sec in running buffer. The association and dissociation phases were measured for 300 seconds. All the measurements were corrected for the basic drift by subtracting a reference well with a ligand subjected only to the running buffer.
as §2

[10] = target: T1, recombinant human CD160 protein, …; test: BLI, biotinylated CD160 at 10 nM on streptavidin sensor, antibody 3.13-100 nM (row repeated from Table 9)
Method: as §1, §2

Row | Gain in KD/respective IgG [1] | Kd [2] | koff [2] | kon [2] | Kd [3] | koff [3] | kon [3] | Gain in KD/respective IgG [4] | Kd [4] | koff [4] | kon [4] | median fluorescence, factor against H7 IgG1 [5] | EC50 of NK cell activation (IFN-γ, CD69), improvement against ELB02101 [6] | Binder | also measured
1 | 1.9 fold | 1.55 nM | 0.000654 s⁻¹ | 422000 M⁻¹ s⁻¹ | 1.55 nM | 0.000654 s⁻¹ | 422000 M⁻¹ s⁻¹ | 2.7 fold | 4.5 nM | 0.00113 s⁻¹ | 251000 M⁻¹ s⁻¹ | 3 fold | 2 to 3 logs | D12 in the IgG1 format (antibody, also called ELB02102) heavy: not shown light: EIVLTQSPATLSLSPGERATLSCRASQSISNHLHWYQQKPGQAPRLLIKYASQSISGIPARFSGSGSGTDFTLTISSLEPEDFAVYFCQQSNSWPLTFGGGTKVEIKRTVAAPSVFIFPPSDEQLKSGTASVVCLLNNFYPREAKVQWKVDNALQSGNSQESVTEQDSKDSTYSLSSTLTLSKADYEKHKVYACEVTHQGLSSPVTKSFNRGEC | 
2 |  |  |  |  |  |  |  |  |  |  |  |  |  | H7 D12 in the Fab linker Fab format (other, two light chains follow from the format; also called ELB01132; D12 Fab linker Fab) heavy: QVQLVQSGAEVKKPGASVKVSCKASGYTFSDFWMQWIRQAPGQGLEWIGAIYPGDDDARVTQKFRGRATLTADKSTSTAYMELSSLRSEDTAVYYCARRGIAAVVGGFDYWGQGTTLTVSSASTKGPSVFPLAPSSKSTSGGTAALGCLVKDYFPEPVTVSWNSGALTSGVHTFPAVLQSSGLYSLSSVVTVPSSSLGTQTYICNVNHKPSNTKVDKRVEPKSCDKGGGGSGGGGSGGGGSQVQLVQSGAEVKKPGASVKVSCKASGYTFSDFWMQWIRQAPGQGLEWIGAIYPGDDDARVTQKFRGRATLTADKSTSTAYMELSSLRSEDTAVYYCARRGIAAVVGGFDYWGQGTTLTVSSASTKGPSVFPLAPSSKSTSGGTAALGCLVKDYFPEPVTVSWNSGALTSGVHTFPAVLQSSGLYSLSSVVTVPSSSLGTQTYICNVNHKPSNTKVDKRVEPKSCDK light: EIVLTQSPATLSLSPGERATLSCRASQSISNHLHWYQQKPGQAPRLLIKYASQSISGIPARFSGSGSGTDFTLTISSLEPEDFAVYFCQQSNSWPLTFGGGTKVEIKRTVAAPSVFIFPPSDEQLKSGTASVVCLLNNFYPREAKVQWKVDNALQSGNSQESVTEQDSKDSTYSLSSTLTLSKADYEKHKVYACEVTHQGLSSPVTKSFNRGEC | EC50 (read off the curve) [7]: ~2 nM
3 |  |  |  |  |  |  |  |  |  |  |  | 3 fold |  | D12 in the IgG1 E345K format (antibody, also called ELB02112) heavy: not shown light: EIVLTQSPATLSLSPGERATLSCRASQSISNHLHWYQQKPGQAPRLLIKYASQSISGIPARFSGSGSGTDFTLTISSLEPEDFAVYFCQQSNSWPLTFGGGTKVEIKRTVAAPSVFIFPPSDEQLKSGTASVVCLLNNFYPREAKVQWKVDNALQSGNSQESVTEQDSKDSTYSLSSTLTLSKADYEKHKVYACEVTHQGLSSPVTKSFNRGEC | Kd [8]: 1.52 nM; koff [8]: 0.000679 s⁻¹; kon [8]: 447000 M⁻¹ s⁻¹; EC50 of IFN-gamma production by NK cells, additional improvement against the IgG1 variants [6]: 2 logs; EC50 of IFN-gamma production by NK cells, improvement against ELB02101 [6]: 4 logs
4 |  | 2.94 nM | 0.00109 s⁻¹ | 370000 M⁻¹ s⁻¹ | 2.94 nM | 0.00109 s⁻¹ | 370000 M⁻¹ s⁻¹ |  | 12 nM | 0.00251 s⁻¹ | 209000 M⁻¹ s⁻¹ |  |  | anti-CD160 H7 antibody in the human IgG1 format (antibody, also called H7 IgG1; ELB02101) heavy: not shown light: EIVLTQSPATLSLSPGERATLSCRASQSISNHLHWYQQKPGQAPRLLIKYASQSISGIPARFSGSGSGTDFTLTISSLEPEDFAVYFCQQSNSWPLTFGGGTKVEIKRTVAAPSVFIFPPSDEQLKSGTASVVCLLNNFYPREAKVQWKVDNALQSGNSQESVTEQDSKDSTYSLSSTLTLSKADYEKHKVYACEVTHQGLSSPVTKSFNRGEC | Binding response, at 50 nM of anti-CD160 [9]: 1.01 nm (arbitrary units); Kd [9]: 4 nM; koff [9]: 0.00235 s⁻¹; kon [9]: 587000 M⁻¹ s⁻¹; Kd [10]: 2.94 nM; koff [10]: 0.00109 s⁻¹; kon [10]: 370000 M⁻¹ s⁻¹
5 | 2 fold | 1.47 nM | 0.000651 s⁻¹ | 442000 M⁻¹ s⁻¹ | 1.47 nM | 0.000651 s⁻¹ | 442000 M⁻¹ s⁻¹ | 3 fold | 3.9 nM | 0.000877 s⁻¹ | 223000 M⁻¹ s⁻¹ | 3 fold | 2 to 3 logs | A09 in the IgG1 format (antibody, also called ELB02104; H7 A09 variant in IgG1 format) heavy: not shown light: EIVLTQSPATLSLSPGERATLSCRASQSISNHLHWYQQKPGQAPRLLIKYASQSISGIPARFSGSGSGTDFTLTISSLEPEDFAVYFCQQSNSWPLTFGGGTKVEIKRTVAAPSVFIFPPSDEQLKSGTASVVCLLNNFYPREAKVQWKVDNALQSGNSQESVTEQDSKDSTYSLSSTLTLSKADYEKHKVYACEVTHQGLSSPVTKSFNRGEC | 
